From US20050026833A1, “PSP-94: use for treatment of hypercalcemia and bone metastasis” (priority 2001, published 2005) come the findings set out here.

Entries after “also recorded” stand apart in the source; their conditions may differ.

One assay relates to Mat Ly Lu-PTHrP cells. Briefly: Mat Ly Lu-PTHrP cell growth curve (Coulter counter). It counts as cell-based, rat. The protocol:
Growth curve. For growth curves, Mat Ly Lu-PTHrP cells were plated in 6-well plates (Falcon Plastics, Oxnard, Calif.) at seeding densities of 5×10^3 cells/well. Mat Ly Lu-PTHrP cells were grown in the presence of 0.1, 1.0 & 10.0 ug/ml of PSP-94 or vehicle alone for up to 3 days and the ability of PSP-94 to alter cell doubling time was evaluated daily. Medium was changed every two days. The number of cells was counted in a model Z Coulter counter (Coulter Electronics, Beds, UK). Comparison was also made with doubling time of wild type untransfected Mat Ly Lu cells.
Mat Ly Lu cells transfected with vector alone (CMV) or vector expressing PTHrP were seeded at a density of 5×10^3 cells/well in 6-well plates. Mat Ly Lu-PTHrP cells were treated with PSP-94 and were trypsinized and counted using a coulter counter as described herein. Change in cell number following treatment with 10.0 ug/ml of PSP-94 for 72 hrs is illustrated in FIG. 1.
Mat Ly Lu-PTHrP cells were seeded at a density of 5×10^3 cells/well in 6-well plates and treated with different doses (1.0-100.0 ug/ml) of PCK3145 for up to 5 days and were trypsinized and counted using a coulter counter as described herein.

A further assay concerns PTHrP. Put plainly: Plasma PTHrP radioimmunoassay in tumor bearing animals. It counts as in vivo, male Copenhagen rats. As for the experimental part: (§1) Control animals received PBS alone as vehicle control.
(§2) Other Analytical Methods. Plasma calcium levels were determined by atomic absorption spectrophotometry (model 703, Perkin-Elmer, Norwalk, Conn.). For plasma PTHrP, all samples were tested in two dilutions in PTHrP radio-immunoassay (R.I.A.) kit (Nichols Institute Diagnostics, San Juan Capistrano, Calif.) according to manufacturer's instructions.
(§3) Comparison was made between plasma collected from normal, non-tumor bearing animals (N), control tumor bearing animals receiving vehicle alone (CTL) and plasma collected from experimental animals receiving different doses of PSP-94 (0.1-10.0 ug/kg/day). Plasma calcium levels were determined by atomic absorption spectrophotometry (model 703, Perkin-Elmer, Norwalk, Conn.). For plasma PTHrP, all samples were tested in two dilutions in PTHrP R.I.A. kit (Nichols Institute Diagnostics, San Juan Capistrano, Calif.) according to manufacturers instructions.
(§4) FIGS. 10A and 10B show male Copenhagen rats inoculated s.c. with 10^6 Mat Ly Lu-PTHrP cells. Following 3 days of tumor cell inoculation, animals were treated with vehicle alone (Ctl) or different doses (1.0, or 10.0 ug/kg/day) of PSP-94 for 18 days. Animals were sacrificed on day 21 and plasma PTHrP (FIG. 10A; expressed in picomole equivalents/liter) or plasma calcium (FIG. 10B; expressed in millimolar (mM)) levels were determined. Results for non-tumor bearing animals are also shown (N).
Comparison was made between plasma collected from normal, non-tumor bearing animals, control tumor bearing animals receiving vehicle alone and experimental animals receiving different doses of PCK3145 (1.0-100.0 ug/kg/day). […] Plasma PTHrP levels in normal non-tumor bearing animals are also shown (N).

Assay [1] in a line: Plasma calcium by atomic absorption spectrophotometry in tumor bearing animals. It counts as in vivo, male Copenhagen rats. As for the experimental part: as §1, §2, §3, §4
Plasma calcium levels from non-tumor bearing animals are also shown (N).

The next assay has as its system Mat Ly Lu-PTHrP tumors. Briefly: S.C. Mat Ly Lu-PTHrP tumor growth (volume, weight) in Copenhagen rats. It counts as in vivo, male Copenhagen rats. As for the experimental part:
as §1
Starting from the day of tumor cell inoculation animals were infused S.C., below the tumor cell inoculation site, with different doses of PSP-94 (0.1-10.0 ug/kg/day) for up to 15 days.
In FIG. 2B male Copenhagen rats were inoculated s.c with 10^6 Mat Ly Lu-PTHrP cells. After 3 days of tumor cell inoculation, animals were injected with vehicle alone (Ctl) or different doses (0.1, 1, 10 ug/kg) of PSP-94 (nPSP) at the site of tumor cell injection. Tumor volume (expressed in cubic centimeter (cm^3)) was determined at timed intervals.
At the end of the study tumors from control (CTL), vehicle treated animals and PSP-94 treated animals were excised and weighed.

Consider “E W Q T D N C E T C T C Y E T (EWQTDNCETCTCYET; PCK3145 (polypeptide 31-45))”, for which the cell growth entry in the assay on Mat Ly Lu-PTHrP cells (PCK3145 1.0-100.0 ug/ml up to 5 days, vs vehicle) is “dose dependent decrease”. The cell number entry in the assay with Mat Ly Lu-PTHrP cells (PCK3145 highest dose 100.0 ug/ml, vs vehicle) is reported as “significant reduction”. The “plasma PTHrP levels” value in the assay on PTHrP (PCK3145 1.0-100.0 ug/kg/day, day 16, vs vehicle) is on record as “dose-dependent decrease”. The plasma calcium levels entry in assay [1] (100.0 ug/kg PCK3145, relative to lower doses) was “more pronounced”; in assay [1] (different doses of PCK3145, day 16, vs vehicle), “significant reduction”. Also, in the assay with Mat Ly Lu-PTHrP tumors (PCK3145 1.0-100.0 ug/kg/day S.C. for 15 days, vs vehicle), the tumor volume result is “significant dose-dependent reduction”. Moreover, the tumor weight entry in the assay with Mat Ly Lu-PTHrP tumors (different doses of PCK3145, day 16 (data not shown), vs vehicle) is recorded as “dose-dependent decrease”.

B1: PSP-94: prostate secretory protein of 94 amino acids; native human seminal plasma PSP-94 (protein)
chain: SCYFIPNEGVPGDSTRKCMDLKGNKHPINSEWQTDNCETCTCYETEISCCTLVSTPVGYDKDNCQRIFKKEDCKYIVVEKKDPKKTCSVSEWII
For B1, in the assay on Mat Ly Lu-PTHrP cells (10.0 ug/ml PSP-94 for 72 hrs, vs cells without PSP-94), the MatLyLu-PTHrP cell growth result was “significant decrease”. Also, the “plasma PTHrP levels” value is given as “near normalization” in the assay with PTHrP (10.0 ug/kg/day PSP-94) and “dose-dependent decrease” with PTHrP (PSP-94 0.1-10.0 ug/kg/day, day 16, vs vehicle). Also, the plasma calcium levels entry in assay [1] (different doses of PSP-94, day 16, vs vehicle) is on record as “significant reduction; also recorded: dose-dependent decrease”; in assay [1] (highest dose of PSP-94, 10.0 ug/kg/day), “near normalization”. Also, the tumor volume result with Mat Ly Lu-PTHrP tumors (10.0 ug/kg/day PSP-94 as compared to 1.0 ug/kg/day PSP-94) is given as “did not show a marked decrease”; in the assay with Mat Ly Lu-PTHrP tumors (PSP-94 0.1-10.0 ug/kg/day S.C. up to 15 days, vs vehicle), “marked dose-dependent reduction”. Also, the tumor weight result in the assay with Mat Ly Lu-PTHrP tumors (PSP-94 0.1-10.0 ug/kg/day, tumors excised day 16, vs vehicle) was “significant dose-dependent decrease”.
